Assay results from the supplement of paper PMC7877785.
± gives the uncertainty stated by the source.

Test: self-splicing fitness, log relative to wild type (ln ratio); higher = more splicing; Tetrahymena group I intron in knt gene, E. coli kanamycin selection, DiMSum; sequences stand for … in CUCUCU…GGAGGGAAAAGUUAUCAGGCAUGCACCUGGUAGCUAGUCUUUAAACCAAUAGAUUGCAUCGGUUUAAAAGGCAAGACCGUCAAAUUGCGGGAAAGGGGUCAACAGCCGUUCAGUACCAAGUCUCAGGGGAAACUUUGAGAUGGCCUUGCAAAGGGUAUGGUAAUAAGCUGACGGACAUGGUCCUAACCACGCAGCCAAGUCCUAAGUCAACAGAUCUUCUGUUGAUAUGGAUGCAGUUCACAGACUAAAUGUCGGUCGGGGAAGAUGUAUUCUUCUCAUAAGAUAUAGUCGGACCUCUCCUUAAUGGGAGCUAGCGGAUGAAGUGAUGCAACACUGGAGCCGCUGGGAACUAAUUUGUAUGCGAAAGUAUAUUGAUUAGUUUUGGAGUACUCGUGGUCG
Procedure, shortened: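 Colonies from six replicate transformations of E. coli BL21(DE3) were pooled and amplicon-sequenced on an Illumina HiSeq 2500. The library placed an intron with all eight P1ex-region nucleotides randomised inside the knt kanamycin-resistance gene on pET-22b(+), and cells grew overnight at 37°C or 30°C on LB agar with or without 25 μg/mL kanamycin (plus 100 μg/mL carbenicillin, 50 μM IPTG, 0.2% rhamnose). Fitness is the DiMSum error-weighted combination of wild-type-normalised replicate fold changes, kanamycin versus none.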

Sequence	self-splicing fitness (ln) (30 °C)	self-splicing fitness (ln) (37 °C)
AUGUAGCAAUAUUACGAGGU	-2.28 ± 0.19	-1.84 ± 0.23
AUGUAGCAAUAUUACGAGUA	-2.73 ± 0.17	-1.72 ± 0.13
AUGUAGCAAUAUUACGAUUU	-0.199 ± 0.093	0.373 ± 0.11
AUGUAGCAAUAUUACGCGCG	-0.882 ± 0.093	-0.464 ± 0.099
AUGUAGCAAUAUUACGCGUG	-1.44 ± 0.12	-0.836 ± 0.12
AUGUAGCAAUAUUACGCUUA	-0.903 ± 0.14	-0.145 ± 0.16
AUGUAGCAAUAUUACGGACC	-1.05 ± 0.2	-0.411 ± 0.21
AUGUAGCAAUAUUACGGAUC	-1.92 ± 0.2	-1.61 ± 0.23
AUGUAGCAAUAUUACGGCAU	-1.88 ± 0.12	-1.69 ± 0.16
AUGUAGCAAUAUUACGGGAG	-3.16 ± 0.29	-2.64 ± 0.44
AUGUAGCAAUAUUACGGGUU	-2.26 ± 0.1	-2.23 ± 0.19
AUGUAGCAAUAUUACGGUUG	-3.62 ± 0.2	-1.99 ± 0.19
AUGUAGCAAUAUUACGUAUC	-4.2 ± 0.42	-2.58 ± 0.3
AUGUAGCAAUAUUACGUCCA	-1.65 ± 0.17	-0.252 ± 0.17
AUGUAGCAAUAUUACGUCCU	-0.674 ± 0.13	0.252 ± 0.19
AUGUAGCAAUAUUACGUGAU	-1.52 ± 0.082	-0.75 ± 0.11
AUGUAGCAAUAUUACGUUAG	-1.89 ± 0.22	-2.97 ± 0.4
AUUAAGCAAUAUUACGAAAU	-1.35 ± 0.13	-1.44 ± 0.18
AUUAAGCAAUAUUACGACCA	-0.395 ± 0.2	-0.571 ± 0.25
AUUAAGCAAUAUUACGAUAG	-3.89 ± 0.37	-2.55 ± 0.31
AUUAAGCAAUAUUACGAUUA	-0.777 ± 0.13	-0.308 ± 0.13
AUUAAGCAAUAUUACGCAUC	-3.36 ± 0.31	-1.24 ± 0.25
AUUAAGCAAUAUUACGCCUG	-0.765 ± 0.15	-0.543 ± 0.17
AUUAAGCAAUAUUACGGCCU	-0.548 ± 0.1	-0.318 ± 0.12
AUUAAGCAAUAUUACGGCGA	-0.67 ± 0.12	-0.121 ± 0.14

Sequence	self-splicing fitness (ln) (30 °C)	self-splicing fitness (ln) (37 °C)
AUUAAGCAAUAUUACGGCUU	-0.718 ± 0.088	0.207 ± 0.12
AUUAAGCAAUAUUACGGGUU	-2.34 ± 0.23	-2.92 ± 0.38
AUUAAGCAAUAUUACGGUAA	-1.64 ± 0.12	-1.33 ± 0.11
AUUAAGCAAUAUUACGGUAU	-1.01 ± 0.11	-1.2 ± 0.14
AUUAAGCAAUAUUACGUACG	-1.15 ± 0.13	-0.777 ± 0.14
AUUAAGCAAUAUUACGUAGG	-2.34 ± 0.18	-1.81 ± 0.29
AUUAAGCAAUAUUACGUCCU	-0.24 ± 0.097	0.264 ± 0.12
AUUAAGCAAUAUUACGUCGC	-3.33 ± 0.22	-2.8 ± 0.25
AUUAAGCAAUAUUACGUUAG	-2.76 ± 0.23	-3.12 ± 0.27
AUUAAGCAAUAUUACGUUGU	-1.98 ± 0.21	-2.8 ± 0.32
AUUCAGCAAUAUUACGACCU	-0.21 ± 0.095	0.317 ± 0.12
AUUCAGCAAUAUUACGAGGC	-3.49 ± 0.19	-1.51 ± 0.19
AUUCAGCAAUAUUACGAGUA	-1.81 ± 0.2	-1.24 ± 0.18
AUUCAGCAAUAUUACGCAAG	-1.26 ± 0.098	-0.884 ± 0.13
AUUCAGCAAUAUUACGCCAU	-1.46 ± 0.1	-1.09 ± 0.1
AUUCAGCAAUAUUACGCCCA	-1.11 ± 0.18	-0.0785 ± 0.23
AUUCAGCAAUAUUACGCGAC	-2.38 ± 0.23	-0.937 ± 0.18
AUUCAGCAAUAUUACGCUAU	-1.45 ± 0.079	-0.637 ± 0.1
AUUCAGCAAUAUUACGCUGC	-2.3 ± 0.13	-2.35 ± 0.19
AUUCAGCAAUAUUACGCUUC	-2.28 ± 0.15	-1.76 ± 0.18
AUUCAGCAAUAUUACGGACA	-0.904 ± 0.078	-0.744 ± 0.095
AUUCAGCAAUAUUACGGACC	-0.601 ± 0.1	0.355 ± 0.15
AUUCAGCAAUAUUACGGACG	-0.626 ± 0.08	-0.168 ± 0.098
AUUCAGCAAUAUUACGGGGC	-3.25 ± 0.3	-2.99 ± 0.21
AUUCAGCAAUAUUACGGUGA	-0.556 ± 0.097	-0.526 ± 0.086

Sequence	self-splicing fitness (ln) (30 °C)	self-splicing fitness (ln) (37 °C)
AUUCAGCAAUAUUACGUUAA	-1.62 ± 0.12	-0.923 ± 0.1
AUUGAGCAAUAUUACGAACC	–	-2.31 ± 0.46
AUUGAGCAAUAUUACGAGAU	-3.73 ± 0.35	-1.11 ± 0.26
AUUGAGCAAUAUUACGAGUC	-4.1 ± 0.34	-2.38 ± 0.35
AUUGAGCAAUAUUACGCCUU	-2.26 ± 0.39	-1.89 ± 0.3
AUUGAGCAAUAUUACGCGAC	-3.45 ± 0.3	-1.2 ± 0.24
AUUGAGCAAUAUUACGCGCU	-2.3 ± 0.29	-1.29 ± 0.41
AUUGAGCAAUAUUACGCGGG	-3.34 ± 0.36	-2.25 ± 0.35
AUUGAGCAAUAUUACGCGUU	-3.02 ± 0.26	-2.34 ± 0.23
AUUGAGCAAUAUUACGGCAA	-1.58 ± 0.14	-0.831 ± 0.13
AUUGAGCAAUAUUACGGCAU	-1.17 ± 0.088	-0.323 ± 0.13
AUUGAGCAAUAUUACGGCUC	–	-1.77 ± 0.32
AUUGAGCAAUAUUACGGGCC	-2.96 ± 0.36	-2.05 ± 0.43
AUUGAGCAAUAUUACGGGUA	–	-2.06 ± 0.32
AUUGAGCAAUAUUACGGGUC	-3.34 ± 0.39	–
AUUGAGCAAUAUUACGGGUU	-3.92 ± 0.25	-3.31 ± 0.21
AUUGAGCAAUAUUACGGUAA	-3.25 ± 0.22	-2.53 ± 0.2
AUUGAGCAAUAUUACGGUGA	-2.89 ± 0.28	-1.48 ± 0.22
AUUGAGCAAUAUUACGUAGA	-2.86 ± 0.26	-2.38 ± 0.42
AUUGAGCAAUAUUACGUAGG	-3.16 ± 0.37	0.0777 ± 0.29
AUUGAGCAAUAUUACGUCAU	-2.76 ± 0.14	-2.12 ± 0.17
AUUGAGCAAUAUUACGUCGG	-4.24 ± 0.46	-1.68 ± 0.39
AUUGAGCAAUAUUACGUUUU	-3.05 ± 0.17	-1.38 ± 0.22
AUUUAGCAAUAUUACGAACA	-0.709 ± 0.15	-0.537 ± 0.17
AUUUAGCAAUAUUACGAAUG	-2.39 ± 0.19	-0.72 ± 0.21

Sequence	self-splicing fitness (ln) (30 °C)	self-splicing fitness (ln) (37 °C)
AUUUAGCAAUAUUACGAGGG	–	-1.34 ± 0.28
AUUUAGCAAUAUUACGAUUA	-1.4 ± 0.2	-0.561 ± 0.16
AUUUAGCAAUAUUACGCAAU	-2.53 ± 0.2	-1.86 ± 0.18
AUUUAGCAAUAUUACGCAGU	-3 ± 0.28	-2.18 ± 0.26
AUUUAGCAAUAUUACGCAUG	-1.05 ± 0.12	-0.777 ± 0.18
AUUUAGCAAUAUUACGCCAU	-0.966 ± 0.27	0.446 ± 0.24
AUUUAGCAAUAUUACGCCCA	-1.06 ± 0.26	-1.58 ± 0.27
AUUUAGCAAUAUUACGCGGG	-2.72 ± 0.19	-1.96 ± 0.16
AUUUAGCAAUAUUACGCGGU	-2.13 ± 0.29	-1.87 ± 0.44
AUUUAGCAAUAUUACGGAGU	-2.92 ± 0.27	-2.29 ± 0.27
AUUUAGCAAUAUUACGGGAU	-1.42 ± 0.11	-0.217 ± 0.14
AUUUAGCAAUAUUACGGGCG	-1.77 ± 0.12	-0.764 ± 0.12
AUUUAGCAAUAUUACGUACU	-0.21 ± 0.11	-0.13 ± 0.15
AUUUAGCAAUAUUACGUAGC	-3 ± 0.23	-1.64 ± 0.25
AUUUAGCAAUAUUACGUAUC	–	-2.15 ± 0.32
AUUUAGCAAUAUUACGUUUU	-3.37 ± 0.24	-2.25 ± 0.2
CAAAAGCAAUAUUACGACGU	-0.652 ± 0.066	0.0132 ± 0.08
CAAAAGCAAUAUUACGAGCU	-3.99 ± 0.21	-1.96 ± 0.13
CAAAAGCAAUAUUACGAGGG	-2.77 ± 0.14	-2.53 ± 0.21
CAAAAGCAAUAUUACGAGUC	-4.06 ± 0.24	-2.65 ± 0.25
CAAAAGCAAUAUUACGAUGC	-3.49 ± 0.19	-2.99 ± 0.32
CAAAAGCAAUAUUACGCCGU	-2.08 ± 0.16	-1.32 ± 0.18
